Results: paper PMC5551697 (The Journal of Cell Biology, 2017)

T1: GST-Aim21 (S. cerevisiae, UniProt P40563 1-679)
T1 sequence (looked up): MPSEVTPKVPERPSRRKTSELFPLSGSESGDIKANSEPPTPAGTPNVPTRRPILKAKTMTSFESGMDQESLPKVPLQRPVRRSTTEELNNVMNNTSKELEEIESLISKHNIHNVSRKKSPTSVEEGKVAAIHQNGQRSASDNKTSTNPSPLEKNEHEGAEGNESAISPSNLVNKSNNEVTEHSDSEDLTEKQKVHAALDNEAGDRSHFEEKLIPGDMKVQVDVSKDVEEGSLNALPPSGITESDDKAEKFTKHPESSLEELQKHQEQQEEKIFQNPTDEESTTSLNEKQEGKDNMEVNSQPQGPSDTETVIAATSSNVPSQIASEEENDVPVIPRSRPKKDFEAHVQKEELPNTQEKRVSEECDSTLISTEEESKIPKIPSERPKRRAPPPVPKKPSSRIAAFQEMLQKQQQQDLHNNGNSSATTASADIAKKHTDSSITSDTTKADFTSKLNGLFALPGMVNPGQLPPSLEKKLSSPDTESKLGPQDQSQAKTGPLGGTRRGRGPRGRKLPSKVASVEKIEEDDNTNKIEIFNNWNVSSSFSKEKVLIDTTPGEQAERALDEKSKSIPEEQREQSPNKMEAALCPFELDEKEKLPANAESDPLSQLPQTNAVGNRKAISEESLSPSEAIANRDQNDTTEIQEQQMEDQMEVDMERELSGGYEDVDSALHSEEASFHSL

T2: reconstituted Tda2–Aim21 complex (GST-Aim21–His-Tda2 complex) (S. cerevisiae, UniProt P40563 1-679; P40045 1-126)
T2 sequence (looked up) 1: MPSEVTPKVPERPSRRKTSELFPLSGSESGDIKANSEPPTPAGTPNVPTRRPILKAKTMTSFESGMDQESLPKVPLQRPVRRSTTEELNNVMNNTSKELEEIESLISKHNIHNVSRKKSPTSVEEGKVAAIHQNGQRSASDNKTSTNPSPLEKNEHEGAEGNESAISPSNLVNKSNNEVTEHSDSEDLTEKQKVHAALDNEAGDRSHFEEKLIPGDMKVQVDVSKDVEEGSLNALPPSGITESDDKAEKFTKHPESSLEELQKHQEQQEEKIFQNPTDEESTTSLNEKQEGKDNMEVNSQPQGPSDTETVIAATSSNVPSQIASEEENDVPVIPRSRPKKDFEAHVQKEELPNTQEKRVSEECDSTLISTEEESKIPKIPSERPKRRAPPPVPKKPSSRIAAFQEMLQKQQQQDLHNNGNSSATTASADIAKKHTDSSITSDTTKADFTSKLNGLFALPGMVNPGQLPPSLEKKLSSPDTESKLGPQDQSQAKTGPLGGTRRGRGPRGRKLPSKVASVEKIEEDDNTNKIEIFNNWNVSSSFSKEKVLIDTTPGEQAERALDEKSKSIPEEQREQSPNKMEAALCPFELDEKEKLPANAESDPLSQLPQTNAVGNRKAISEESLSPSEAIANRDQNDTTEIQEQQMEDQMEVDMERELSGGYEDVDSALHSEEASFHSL
T2 sequence (looked up) 2: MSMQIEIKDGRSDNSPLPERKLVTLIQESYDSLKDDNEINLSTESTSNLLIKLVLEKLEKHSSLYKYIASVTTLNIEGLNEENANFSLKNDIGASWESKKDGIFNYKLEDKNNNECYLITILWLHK


Assays:
[1] = biological target: the molecule itself; assay: AUC
[2] = biological target: T1, GST-Aim21; assay: pull-down
[3] = biological target: T2, reconstituted Tda2–Aim21 complex …; assay: pull-down

binding result [2]	binding result [3]	Binder	stoichiometry N [1]
binds	–	recombinant 6-histidine-tagged Tda2 (natural protein, S. cerevisiae, UniProt P40045 1-126, looked up) MSMQIEIKDGRSDNSPLPERKLVTLIQESYDSLKDDNEINLSTESTSNLLIKLVLEKLEKHSSLYKYIASVTTLNIEGLNEENANFSLKNDIGASWESKKDGIFNYKLEDKNNNECYLITILWLHK	2
–	binds	actin-capping protein carrying a 6His-tag in its Cap1 subunit (His-Cap1/Cap2 dimer) (complex, S. cerevisiae) chain 1: MSSSKFEEVINKIINDSPPGELREVYDDLIKITSENSKNTILDAIENYNVQNCIPIEVNGNSVIISKYNKEGAKFFDPVNSVIFSVNHLERKGLDIEPYEFTHAKIEKGQLKELHDKLHEYLLQSFPGDVSFAVYPVPEEISKISIIIVSTKYNPNNFWNGHWRSSYIYDLETRELSGQISTQVHYYEDGNVSFQSGKDINQSNVDDVVCTIRDIETNFENDLDLSFFDLNEKQFKALRRRLPVTRSKINWGSAIGSYRLGKNAAEGK chain 2: MSDAQFDAALDLLRRLNPTTLQENLNNLIELQPNLAQDLLSSVDVPLSTQKDSADSNREYLCCDYNRDIDSFRSPWSNTYYPELSPKDLQDSPFPSAPLRKLEILANDSFDVYRDLYYEGGISSVYLWDLNEEDFNGHDFAGVVLFKKNQSDHSNWDSIHVFEVTTSPSSPDSFNYRVTTTIILHLDKTKTDQNSHMMLSGNLTRQTEKDIAIDMSRPLDVIFTSHVANLGSLIEDIESQMRNLLETVYFEKTRDIFHQTKNAAIASSAEEANKDAQAEVIRGLQSL	–
